The term kcat denotes the number of substrate molecules converted per active site and unit of time at saturation. A word on the kcat/Km: it is the turnover number divided by the Michaelis constant.

These results are taken from PMC5678113, “Substrate Specificity and Allosteric Regulation of a D-Lactate Dehydrogenase from a Unicellular Cyanobacterium are Altered by an Amino Acid Substitution” (Scientific Reports, 2017).

Assay in all cases: NADH oxidation followed at A340
For data set [1], the target named is T1, SyDdh (GST-SyDdh) (Synechocystis sp. PCC 6803, UniProt P74586).
T1 construct: gene ddh; Full ddh ORF, GST-tagged (tag kept, pGEX5X-1), expressed in E. coli DH5alpha, glutathione-Sepharose purified
T1 sequence (P74586 1-333): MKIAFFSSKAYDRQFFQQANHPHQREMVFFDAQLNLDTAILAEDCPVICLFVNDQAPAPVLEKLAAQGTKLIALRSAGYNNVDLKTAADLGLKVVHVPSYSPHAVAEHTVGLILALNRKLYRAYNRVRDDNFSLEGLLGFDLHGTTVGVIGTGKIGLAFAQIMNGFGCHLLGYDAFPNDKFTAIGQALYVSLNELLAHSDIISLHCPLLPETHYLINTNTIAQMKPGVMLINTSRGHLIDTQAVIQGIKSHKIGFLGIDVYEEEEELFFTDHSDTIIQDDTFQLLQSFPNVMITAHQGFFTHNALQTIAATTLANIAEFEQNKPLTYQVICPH
Type of data set: biochemical. Conditions: for remaining activity at 2500 µM: read-out: % residual activity at 2.5 mM.

In data set [2] the target is T1, SyDdh (GST-SyDdh). Type of data set: biochemical. To be noted: pH 7.5, 30 °C, 0.1 mM NADH, no Mg2+; substrate inhibition. The source says:
(§1) NADH oxidation followed at A340 on SyDdh (GST-SyDdh)

Data set [3] concerns the target T2, SyDdh (GST-SyDdh) (Synechocystis sp. PCC 6803, UniProt P74586, S234G).
T2 construct: gene ddh; Full ddh ORF, GST-tagged (tag kept, pGEX5X-1), expressed in E. coli DH5alpha, glutathione-Sepharose purified
Format: biochemical. Conditions: pH 7.5, 30 °C, 0.1 mM NADH, no Mg2+; substrate inhibition.
Text: as §1

The target of data set [4] is T3, SyDdh (GST-SyDdh) (Synechocystis sp. PCC 6803, UniProt P74586, Q14E).
T3 construct: gene ddh; Full ddh ORF, GST-tagged (tag kept, pGEX5X-1), expressed in E. coli DH5alpha, glutathione-Sepharose purified
Format: biochemical. Conditions: pH 7.5, 30 °C, 0.1 mM NADH, no Mg2+; substrate inhibition.
Text: as §1

Substrate in data set [5]: CC(=O)C(=O)O
Type of data set: biochemical, Synechocystis sp. PCC 6803. Conditions: pH 7.5, 30 °C, 0.1 mM NADH, no Mg2+, Hill coefficient 2.51.

Substrate in data set [6]: NC(=O)C1=CN([C@@H]2O[C@H](COP(=O)(O)OP(=O)(O)OC[C@H]3O[C@@H](n4cnc5c(N)ncnc54)[C@H](O)[C@@H]3O)[C@@H](O)[C@H]2O)C=CC1
Type of data set: biochemical, Synechocystis sp. PCC 6803. Conditions: pH 7.5, 30 °C, varied: cofactor.

Substrate in data set [7]: O=C(O)CC(=O)C(=O)O
Format: biochemical, Synechocystis sp. PCC 6803. To be noted: pH 7.5, 30 °C, 0.1 mM NADH, no Mg2+.
Text: as §1

Substrate in data set [8]: CC(=O)C(=O)O
Format: biochemical, Synechocystis sp. PCC 6803. To be noted: pH 7.5, 30 °C, 0.1 mM NADH, no Mg2+.
Text: as §1

With `Nc1ncnc2c1ncn2[C@@H]1O[C@H](COP(=O)(O)OP(=O)(O)OP(=O)(O)O)[C@@H](O)[C@H]1O` [ATP], the remaining activity at 2500 µM in data set [1] came to 72%.

Take `O=C(O)CC(=O)C(=O)O` [oxaloacetate]: the “K i” value in data set [2] was determined as 8.56 ± 3.39 mM; in data set [3], 5.74 ± 1.04 mM.

With `CC(=O)C(=O)O` [pyruvate], the “K i” value in data set [4] is reported as 16.51 ± 5.98 mM.

With `O=P(O)(O)OC[C@H]1OC(O)(COP(=O)(O)O)[C@@H](O)[C@@H]1O` (some centres unmarked) [FBP], in data set [1] (read-out: % activity at 2.5 mM), the activity at 2500 µM came out at 134%.

For `NC(=O)C(=O)O` [oxamate], in data set [1], the remaining activity at 2500 µM is 42%.

B1: SyDdh (GST-SyDdh) (Synechocystis sp. PCC 6803 substr. Kazusa) (protein)
chain: MKIAFFSSKAYDRQFFQQANHPHQREMVFFDAQLNLDTAILAEDCPVICLFVNDQAPAPVLEKLAAQGTKLIALRSAGYNNVDLKTAADLGLKVVHVPSYSPHAVAEHTVGLILALNRKLYRAYNRVRDDNFSLEGLLGFDLHGTTVGVIGTGKIGLAFAQIMNGFGCHLLGYDAFPNDKFTAIGQALYVSLNELLAHSDIISLHCPLLPETHYLINTNTIAQMKPGVMLINTSRGHLIDTQAVIQGIKSHKIGFLGIDVYEEEEELFFTDHSDTIIQDDTFQLLQSFPNVMITAHQGFFTHNALQTIAATTLANIAEFEQNKPLTYQVICPH
notes: Full ddh ORF, GST-tagged (tag kept, pGEX5X-1), expressed in E. coli DH5alpha, glutathione-Sepharose purified
B1: in data set [5], the K0.5 is listed as 0.38 ± 0.04 mM, the kcat worked out at 2.71 ± 0.26 s⁻¹ and the kcat/Km worked out at 7140 ± 1150 M⁻¹ s⁻¹. Besides, in data set [6], the K0.5 amounted to 0.028 ± 0.002 mM and the kcat amounted to 2.60 ± 0.25 s⁻¹.

B2: SyDdh (GST-SyDdh) (Synechocystis sp. PCC 6803 substr. Kazusa; S234G) (protein)
chain: MKIAFFSSKAYDRQFFQQANHPHQREMVFFDAQLNLDTAILAEDCPVICLFVNDQAPAPVLEKLAAQGTKLIALRSAGYNNVDLKTAADLGLKVVHVPSYSPHAVAEHTVGLILALNRKLYRAYNRVRDDNFSLEGLLGFDLHGTTVGVIGTGKIGLAFAQIMNGFGCHLLGYDAFPNDKFTAIGQALYVSLNELLAHSDIISLHCPLLPETHYLINTNTIAQMKPGVMLINTGRGHLIDTQAVIQGIKSHKIGFLGIDVYEEEEELFFTDHSDTIIQDDTFQLLQSFPNVMITAHQGFFTHNALQTIAATTLANIAEFEQNKPLTYQVICPH
notes: as for B1
Turning to B2, in data set [7] (substrate-inhibition fit), the K0.5 came out at 0.59 ± 0.05 mM, the kcat worked out at 1.27 ± 0.24 s⁻¹ and the kcat/Km was determined as 2190 ± 520 M⁻¹ s⁻¹. In data set [8] (Hill coefficient 1.64), the K0.5 was 2.10 ± 0.18 mM, the kcat worked out at 1.71 ± 0.26 s⁻¹ and the kcat/Km came out at 820 ± 130 M⁻¹ s⁻¹.

B3: SyDdh (GST-SyDdh) (Synechocystis sp. PCC 6803 substr. Kazusa; Q14E) (protein)
chain: MKIAFFSSKAYDREFFQQANHPHQREMVFFDAQLNLDTAILAEDCPVICLFVNDQAPAPVLEKLAAQGTKLIALRSAGYNNVDLKTAADLGLKVVHVPSYSPHAVAEHTVGLILALNRKLYRAYNRVRDDNFSLEGLLGFDLHGTTVGVIGTGKIGLAFAQIMNGFGCHLLGYDAFPNDKFTAIGQALYVSLNELLAHSDIISLHCPLLPETHYLINTNTIAQMKPGVMLINTSRGHLIDTQAVIQGIKSHKIGFLGIDVYEEEEELFFTDHSDTIIQDDTFQLLQSFPNVMITAHQGFFTHNALQTIAATTLANIAEFEQNKPLTYQVICPH
notes: as for B1
As for B3, in data set [7] (Hill coefficient 0.95), the K0.5 is listed as 1.71 ± 0.38 mM, the kcat was determined as 2.38 ± 0.1 s⁻¹ and the catalytic efficiency (kcat/Km) worked out at 1460 ± 310 M⁻¹ s⁻¹. In data set [8] (substrate-inhibition fit), the K0.5 is 0.52 ± 0.10 mM, the catalytic constant (kcat) was 4.11 ± 0.71 s⁻¹ and the kcat/Km is 7980 ± 350 M⁻¹ s⁻¹.
